Experimental data taken from the DeepSol protein solubility set.

Test: soluble on expression in E. coli; label from the status in PepcDB or PDB records

Sequence | soluble on expression in E. coli
METYAVFGNPIAHSKSPFIHQQFAQQLNIEHPYGRVLAPINDFINTLNAFFSAGGKGANVTVPFKEEAFARADELTERAALAGAVNTLMRLEDGRLLGDNTDGVGLLSDLERLSFIRPGLRILLIGAGGASRGVLLPLLSLDCAVTITNRTVSRAEELAKLFAHTGSIQALSMDELEGHEFDLIINATSSGISGDIPAIPSSLIHPGIYCYDMFYQKGKTPFLAWCEQRGSKRNADGLGMLVAQAAHAFLLWHGVLPDVEPVIKQLQEELSALEHHHHHH | soluble
MTDALGELEADVRADLAMIAHPGAAWLEPKIGPDGKPALDVLVVGAGQSGIAIGFGLMRSRVSNILLLDKAEEGKEGPWLTYARMPTLRSPKDYTGPDLDIPSLTYQSWHEARFGKQSWQELGLIERGHWAEYLLWLRRTVGLPVRNACELLEIAPASDGLLTARVKRAGEVETLYARKIVLATGQEGMGGWMIPEPLRHLPSGSVATVADDIDFEKLRGKRVAVIGAGASAFDNAATALEAGAAEVHLLCRRTQIQVIQPYRWLTFRGFLRHLSDLDDAWRWRFMRTILEMREGFPQATYDRCARHANFTLHEGAPVEAARETGKGVELQTPRGAIPADFVICGTGIDMSFAGRGELAAFAGNIATWADRYQPPSSERNERLGRFPYLADDYAFTERVPGETPWISDIHLFAIASTMSFGPSGSSINAMTTAVPKLVHGLTRGLFRADIARHWASLSAYDVPQAVVTRPARKTGELEHHHHHH | soluble
PSVYDAAAQLTADVKKDLRDSWKVWGSDKKGNGVALMTTLFADNQETIGYFKRLGDVSQGMANDKLRGHSITLMYALQNFIDQLDNPDDLVCVVEKFAVNHITRKISAAEFGKINGPIKKVLASKNFGDKYANAWAKLVAVVQAAL | soluble
MVNTLEGLESTRNLILKENPMRRAAELVARLSADEVTMRAAKYELIKFNRAFQNFMLVLDENIEEILMSNDNSTRIQLKKLPEFPSFSDSFMQEYEKALLNGAEKLKASTSSEKGSIPSVSFSSSISSSSAELSDARCLICLDDVISTEKTIKCNSCRRRFHLDCASQWFKEKSVCPACNRGMLDPTEFPSL | not soluble
MAHHHHHHMSSSSSGQYSGSGGNRGSGFVHLNTPASIQYTAGKTLSLSALRQSKSRVECAVLPESMSVWRDAFQRYSKEEGYSSFAADIEDERTGNGPILPPLVPQRAGPVRRRAGRALVRTDAFFCASSSPAPLGTSASTAHTGADRPPLTDGAAAISSTATAASASSSSRLSDKGTTATSADSVADGSTGPTAKQQQEGIPIVSHHKLLGRQQFVYPDYDGVLSAGVVPQIVVTAEEEAEEAAAKAFYISPLTMTEEELAAFEELQGLWKSRARSHSFLGAQHRKAAKGAVDPSSSADVLEAGGAGLPKVRRCEGVTGGASLSARRGNEIDVPAYAEAETAVEEESKLDKELSEALRMADDLLRFA | not soluble
MSLRKNIFFIVFIILCAVSCTEKKSNFINTVHLKGQLLDMGSQNVRMRFDGAASMLGDSRDILLKTDAAGYFDTTFVLKEPTYYTISRNTLYLTPGDDMTIKVTQTNTEAEFSGIGAEANNYMKFRLFPKGGSYLEAGGNLRGDFVSTKALVDSLAAIRMHTLDTLSNVSDAFKKLETARIKADIINSYICYASYSRMFAEVKNEEEMRAKWNEFNVSLTQDVTPLYKEIVNEDMLNVAVVRDVLSYQEDSTLASLWFKDISIPARTTELYACAKIVDNLRNEASEQTVNEAKAFLQTVKNADFATEIEGKIVQASKLLPGQPAIDFEMLDVEGNVKHLADFKGKVIYIDLWATWCGPCIQESPAFEALGKKYVGKDIVFLPVSTDTTTKPWLRYLDGHKKELTQYHSNDVALKESWAIMYIPRFILIDKDFNIVNAYAPRPSSEEIGTLIDSVLNKEGHHHHHH | soluble
MGSDKIHHHHHHMETIHFTKVHGSQNDFFLVDEEENHITEWSDEKRANFAIKLCDRKHSLGGADGILYVTKSSEVGPIGQMRVVNSDGSIASMCGNGLRTVARYLLEKHALTDAKVETMKAILDVKKATSLGFDIPTYQVEISPVKFAAETLPMHVGVEKLFNQVIPELDAELAFSAVSVPNPHLITFVDQAVLDSNKQEKLASYLNSENPYFPDGVNVSFVKRLSDDAIYVRTFERGVGFTNACGTAMSACSLIKKMLDNNILETPLNVYNDGGRVQVTAKKDAAGEISLQLIGNATFVSKGSVRYENDIVTELTNEATAEQAQYQALVKEVKEFLKTTE | not soluble
MSAIIDPSTGKPFKADKQIMGEDIARAYTTGIRNPRPTSVASTITPQRLAGVLRSVIDGNDPEAYMTLAEEIEERDLHYAAQLRTRKFAVAAITPTVEAASDDAIDVLMAERAREIINDDQIPELFFDLLDGLGKGLAVVQILWDTKSTPWKPQDYKWVDPRYLRQDQQTLEQILLISEDAPMGAELEPYKFIIHTPRSKSGSVWRNGLARLVAVMYMLKSFTVRDWWAFAEVFGVPVRVGKYGANASESDISTLINAIGRIASDAGAVIPESMKLELIETAKGNGGDTLFENMARWCDEQISKAVLGQTMTADNGSSQSQATVHNEVRIDIAKWDARQLEASINEYLIKPYIILNWGEQLRYPKVRIKVPEPEDLQLLVNSLTPLIDRGLKVSASEMADKLGLGTVDADEDILLPFQTVGIQAMPTALNRANSQTIAINQVRNTAEREIDNLANEAMGEWEQVAEEFMNPIIDLANKSASYDEFAAGLPALQQQLGAEQFIAQMAQYMFQLRGLGDAQDG | soluble
MQLNATFYSGTCPNASAIVRSTIQQALQSDTRIGASLIRLHFHDCFVNGCDASILLDDTGSIQSEKNAGPNVNSARGFNVVDNIKTALENACPGVVSCSDVLALASEASVSLAGGPSWTVLLGRRDSLTANLAGANSSIPSPIESLSNITFKFSAVGLNTNDLVALSGAHTFGRARCGVFNNRLFNFSGTGNPDPTLNSTLLSTLQQLCPQNGSASTITNLDLSTPDAFDNNYFANLQSNDGLLQSDQELFSTTGSSTIAIVTSFASNQTLFFQAFAQSMINMGNISPLTGSNGEIRLDCKKVNGS | soluble
GEEQPQQISVASGTPVSADQTPATPQEQPRAPWWDASPGVQRLITLKDPQVVCEAASAGLLKTLRFVKYLPCFQILPLDQQLVLVRSCWAPLLMLELAQDHLHFEMMEIPETNTTQEMLTTRRQETEGPEPAEPQATEQPQMVSAEAGHLLPAAAVQAIKSFFFKCWSLNIDTKEYAYLKGTVLFNPDLPGLQCVKYIEGLQWRTQQILTEHIRMMQREYQIRSAELNSALFLLRFINSDVVTELFFRPIIGAVSMDDMMLEMLCAKL | soluble
MSLSGIYEIAILGRATWQLHSLNNEGTVGNVTEPRSVRIIDPNTKKAVTTDGISGEMLKHIHTEIMWTLDDKNNLCDACKVLNPEKFNFAIKSKKATPKDVEDALKQALNTCDICDVQGFLLERPTASRKSTVEFGWALGIPEVYRDIHTHARHALGEKGKREKTEESEEEVGGVSTQMVYHRPTRSGVYAIISVFQPWRIGLNEAKQDKYTYDANDNARERRYQLALKAYPLLFARPEGAMTTTRLPHVEDFSGVIVYSTKPIPVPIISPLKSNYVDEVKTIVENIDDSLKVAEFNGIAEFAMKIGELIKNKPYKMEFEGHHHHHH | soluble
MAHHHHHHMVTGDMSTTVTGLDPHKMARRASRFVSSVKASTGTASSTGRTEMERYFENFASMDSAEGLETIGPKGIQHLCEDLAIKRDSFEMYTLIWKLGITRGGCIPRSDWLNMVYNYNIEVPVELKRRLREWVKDARGPSFVEFYSELYDYIRGDSARMMLPETAARAWDVLFRGDQQVAQWIRWYTGFYDCEVTRDIWRHVALFFNTGENATPYRKEDAWPTAFDLFAEWRETCETP | not soluble
GPGSMDKDVDVTKLTAQALQVHIERCERLMKQPALLSRLPDGGNGIRERYSKYLAEVERRKTNGAASALTAQKDGDGEVRDEDEAQSRPAAVEGCQDEKTVGDTTTAEVTYEEEARAIGERHRHFRVPVEEIVRRTFGGSLCDSELQRIINDVPPGFFLTYEETMSMERKLMEEERAETLERLRRQRSAGGVQ | soluble
MAHHHHHHMIFRFYSKLYKHQCAYKNILYNKYHIEKKLEYFYDSIKKNNYSTLYGIKKNDLLNIKKNSGEFLLLSDIFMIKQNNLFLLNNVRRNFYYNTNIIKGIYNDSLFYYDKKYFSGRSGGLKRKKKRKEERIVNTGSAKRLEFFYPKKKRRQRIGLIQNSRKNIVYDNIFKRFLVYHYKQGIQVFRSFSCKKKRNFEAARNKAIILSNQYNKRFNKHNMNDQQRKDTKNIPLNVMDSNLIAKYNNELIKQIKIIPDKNKSGYRGVFYEPSYHAYICIYNEAGVRKFQIFKIQNNDYLEAYHLALMCRRYKLFKNYQFVFQRNRIRSGRIPLK | not soluble
MLRKQVYLTPEEEAKLKRLARATGRTEAEILRLALDLLPEEEAPLLLALAEEGLLEVPERAVTPARMEEAYRRYLDRVAGRGLGLSKAVLADREGR | soluble
MSRKNILQGLMAGTPSPAPAAAERPRATKGAIGAVSRSIADLKARAVIEVDPFLIDAGGLQDRLESDAAEDAELARSIATYGQQVPVLVRPHPTDENRFQIVYGRRRVLALRDLGQPVKALVRDLDDREAVLAQGQENTARRDLSFIEKVNFARQMADAGYDRKAICDALSVDKTLISRMVSVSERVPVALIEAIGAASGIGRDRWLALAELMEKTDDDLDTLISTMSLTAEGQGSDQRFEALFSYLSGQRRREPPAPLRTEPITGHDGRPLGDVSRGAASVVLRLRRSHAKGFEEWLLQNLPDLHRSWQSDRNGK | not soluble
MSLNDRTTTHGETEPRSEQPGIRAAAGPGRWHDVELMAYKPDDAAPFRSVTRQVLFSDLRLGCEWRYFEVAEGGYSTLERHQHVHATMIHRGRGQCLVGDVISDVAVGDLVFIPPMTWHQFRANAGDVLGFLCLVNADRDRPQLPRPDELAVLRQNKAIASFIGAEAEGHHHHHH | soluble
MSLTLFGKTSRRPGLPRQAAGLALAACALASLPAQAKESDGDRLQGIVEPIVARQPLKLGVTVVHLLDNFYKGIAYGIVDEARRSNVEVVQVAVAGAYGNVQQQFAQLQSFKTLGVDYAVLSPAAYSGYDPVVADLARSGIKTISAGIPVNSDKIAFGVLQDDTLIGKVLGKALCDDGAQGKQVIVVPGAAGLEWPRLRYEGFKEVASACGAKLTPAAFRGEMSLADGMAQTQDLLMRTPDAEYVFTPVTFLGIGAVRAARQANRPVKVLTSAMVKENEAMIREGRLLAVASEPGVIMGRLIVQYAIREHEGLPMPPLDKPTRSVPYPHFNVPITVVDKSNEGHHHHHH | soluble
MGSDKIHHHHHHMLSVEKLACTHGDSHYLFDEVTFSLNPGERILISGYSGCGKSTLALLLSGLKESGKGQVLLNGSLIEPSDVGFLFQNPDLQFCMDTVAHELYFILENLQIEPEQMQDRSEFVLAQVGLKGFQNRLIYTLSQGEKQRLALATIFLKSPKLIILDEAFANLDQESASQLLQLVLNYQANNQSMLIVIDHLITYYQDIMDHYFWLEKRLTRVNFDYMLNRLNVFELEKKSHNTGDKLLSIKDFQVKLSKNKFISYLDFDLASGERLCLDGPSGVGKSSLFMGLLGLYRTKGKKQFTHRKQIPISFLFQNPLDQFIFSTVYDEIFQVCKDSNKARDILETINLWDKKQFSPFQLSQGQQRRLAIGSILASDSKLLLLDEPTYGQDAYHANMITTLLLSYCHKNHCGVIFTSHDPHLKECFATRFLEVSSCSI | not soluble
MSLDVRQSIHSAHAKTLDTQGLRNEFLVEKVFVADEYTMVYSHIDRIIVGGIMPITKTVSVGGEVGKQLGVSYFLERRELGVINIGGAGTITVDGQCYEIGHRDALYVGKGAKEVVFASIDTGTPAKFYYNCAPAHTTYPTKKVTPDEVSPVTLGDNLTSNRRTINKYFVPDVLETCQLSMGLTELAPGNLWNTMPCHTHERRMEVYFYFNMDDDACVFHMMGQPQETRHIVMHNEQAVISPSWSIHSGVGTKAYTFIWGMVGENQVFDDMDHVAVKDLREGHHHHHH | soluble
